The results in this text go back to patent US7094575B2 (priority 1999, dated 2006).

“And” between values parts separate entries of the source, which are not always exact repeats. Equal values may be shown once. Read-outs that look alike come from different tables or passages of the source. Where no end group is shown, it is not given here.

The target in data set [1] is daboiatoxin, the major PLA2 toxin of Daboia russelli siamensis venom (Daboia siamensis, UniProt Q7T2R1+Q7T3T5). The data set is classed as biochemical.
Data set [2] concerns the target Daboiatoxin PLA2 (Daboia siamensis, UniProt Q7T2R1+Q7T3T5). The class given is in vivo, mice. To be noted: mouse, in vivo.
Data set [3] deals with PLA2 activity of Daboia russelli siamensis venom. The class given is biochemical.
Data set [4] has as its system Daboia russelli russelli (India) venom. The data set is classed as in vivo, mice.
Assay in data set [5]: not given
This is another data set of the same source.

Data set [6] concerns Daboia russelli siamensis (Thailand) venom. The class given is in vivo, mice.
The subject of data set [7] is Daboia russelli siamensis venom. The class given is in vivo, mice.
Data set [8] has the same test system. The class given is in vivo, mice. To be noted: Table 6; for Paw oedema: 45 min, n = 3.
In data set [9] the target is T1, Daboiatoxin PLA2 (Daboia siamensis, UniProt Q7T2R1+Q7T3T5).
T1 sequence (Q7T2R1 whole entry, looked up): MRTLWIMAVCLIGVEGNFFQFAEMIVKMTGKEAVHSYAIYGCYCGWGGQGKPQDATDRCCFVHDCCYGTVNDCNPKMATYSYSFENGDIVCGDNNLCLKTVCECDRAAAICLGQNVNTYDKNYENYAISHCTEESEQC
T1 sequence (Q7T3T5 whole entry, looked up): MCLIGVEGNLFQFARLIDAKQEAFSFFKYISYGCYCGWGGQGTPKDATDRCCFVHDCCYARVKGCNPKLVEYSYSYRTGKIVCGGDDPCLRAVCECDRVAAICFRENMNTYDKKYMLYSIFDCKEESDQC
The data set is classed as in vivo, mice.

Data set [10] deals with Daboia russelli pulchella (Sri Lanka) venom. The class given is in vivo, mice.

As to GAFGIFTEDSTEK [PP-0005], in data set [1], the “PLA2-inhibitory activity (in words)” value is “fails to inhibit PLA2 activity” and the “PLA2 inhibition (%)” value is given as −13%. Also, the “Anti-Inflammatory Activity” value on Daboiatoxin PLA2 [2] was “Negative”.

For LSLQNGLYK [PP-0006], in data set [1], the “IC50” value turned out to be 250 µg and the “PLA2 inhibition (%)” value came to 70%.

On to PGLPLSLQNG [P-0029], for which, in data set [1], the “IC50” value was 40 µg and the “PLA2 inhibition (%)” value came to 90%. For the same molecule, for the setting “mouse, in vivo”, the “Oedema (mg), inhibitor alone” value amounted to 13 ± 2 mg.

As for PLPGLPLSKP [P-0009], in data set [1], the “IC50” value was found to be 125 µg and the “PLA2 inhibition (%)” value is on record as 80%.

Consider PLPGLPLSLQNGLYCPGAFGIF [PP-0036], for which, in [1], the “PLA2-inhibitory activity (in words)” value is listed as “devoid of PLA2-inhibitory activity” and the “PLA2 inhibition (%)” value is listed as −3.0%. Further, the “Anti-Inflammatory Activity” value at Daboiatoxin PLA2 [2] is reported as “Negative”.

With PLPGLPLSLQNGLYK [PP-0008], in data set [1], the “PLA2-inhibitory activity (in words)” value is “insignificant” and the “PLA2 inhibition (%)” value came to 18%. The “Anti-Inflammatory Activity” value on Daboiatoxin PLA2 [2] was “Negative”.

B1: PAF: 140-kDa hexameric glycoprotein of six 23-kDa subunits purified from Python reticulatus serum; SEQ ID NO: 6 (protein, listed as Python reticulatus)
chain: MKSLQTICLLFIFIARGTSDKCEICHGFGDDCDGYQEECPSPEDRCGKILIDIALAPVSFRATHKNCFSSSICKLGRVDIHVWDGVYIRGRTNCCDNDQCEDQPLPGLPLSLQNGLYCPGAFGIFTEDSTEHEVKCRGTETMCLDLVGYRQESYAGNITYNIKGCVSSCPLVTLSERGHEGRKNDLKKVECREALKPASSD
In the case of B1, the “Inhibitory activity (IC50)” value in [3] stood at 0.2 mg. Moreover, the “Protection against lethality, Survival/total” value in data set [4] (24 hr) is on record as 3/3; in data set [6] (24 hr) it was 3/3; in data set [7] (24 hr) it was 4/4; in [10] (24 hr), 3/3. Moreover, the “% neutralisation” value turned out to be 100% in data set [4] (mouse, in vivo, ip); 100% in [6] (mouse, in vivo, ip); 100% in data set [7] (mouse, in vivo, ip); 100% in data set [10] (mouse, in vivo, ip). For the same molecule, the “Survival/total, PAF alone” value in data set [5] (24 hr) is on record as 3/3. Moreover, the “toxicity of native PAF” value in data set [5] (mice) was “non-toxic”. The “% Inhibition (mean)” value in data set [8] (venom 5 μg + 25 μg inhibitor) was 7.8%; in [8] (venom 5 μg + 50 μg inhibitor), 46.5%; in data set [8] (venom 5 μg + 100 μg inhibitor) it was 74.6%; with Daboiatoxin PLA2 [9] (mouse, in vivo) it was 89.4% and 92.1%. The “Paw oedema” value in data set [8] (venom 5 μg + 25 μg inhibitor subplantar, PAF is recombinant) is 107 ± 20 mg; in data set [8] (venom 5 μg + 50 μg inhibitor), 62 ± 2.2 mg; in [8] (venom 5 μg + 100 μg inhibitor) it was 29 ± 0.8 mg; in the data set with Daboiatoxin PLA2 [9] (45 min, n = 3), 18 ± 6.0 mg and 13 ± 0.4 mg. In addition, the “% Inhibition (mean) column, inhibitor alone” value (mouse, in vivo) is given as “n.s”. Where the note is “n = 3”, the “Paw oedema (mg), inhibitor alone” value stood at 10 ± 5.2 mg.
